Data from patent US10556936B2, “Immunogenic proteins and fragments thereof from allergenic mites” (ALK-ABELLÓ A/S, priority 2016, dated 2020).
Marks after values point to notes of the source that are not given here.

Experiments:
Assay type in all cases: cell-based, human
[1] = system: T cell lines obtained from HDM allergic individuals and non-allergics; test: In vitro T cell proliferation test in T cell lines (Example 3); settings: 0.5 or 2 ug/ml, 72 h; for % responders of in-vitro T cell proliferation test, Allergic: T cell lines from HDM allergic individuals (n=30); for % responders of in-vitro T cell proliferation test, Non-allergics: T cell lines from non-allergics (n=8)
From the text: (§1) This example relates to the further testing of immunogenicity of the proteins identified in Example 1. Their ability to react with IgE antibodies in HDM allergic individuals, to stimulate in vitro T cell proliferation of HDM allergic individuals and non-allergics, and to stimulate ex vivo cytokine production of HDM allergic individuals and non-allergics. The following tests were used: • Basophil Activation Test (BAT) was used as a predictive in vitro assay for indication of safety/immediate hypersensitivity reactions. BAT test was carried out using blood from HDM allergic individuals (n=14), and by use of different concentrations of test proteins or the major house dust mite allergens (Der p 1, Der f 1, Der p 2 or Der f 2, e.g. a concentration of 1, 10, 100 or 1000 ng/ml. • In vitro T cell reactivity determined in T cell lines obtained from HDM allergic individuals (n=30) and non-allergics (n=8): Determined by establishment of HDM specific T-cell lines according to standard methods. In short, PMBCs from HDM allergic donors were cultured for 3 weeks in the presence of house dust mite allergen extract. The responses to proteins at a concentration of 0.5 ug/ml or 2 ug/ml of the test protein or the major house dust mite allergens (Der p 1, Der f 1, Der p 2 or Der f 2) were assessed by proliferation in a standard 72 h T cell proliferation assay, as described in Henmar H et al., Clin Exp Immunol 2008; 153(3):316-23. […]. • Ex vivo stimulation of PBMC cells obtained from mite allergic patients (n=16) and non-allergics (n=6): Determined by measuring the production of the cytokines; IFN-gamma, IL-9, IL-10, IL-17 and IL-31 following stimulation with test protein in concentration up to 10 ug/ml. Freshly isolated PBMC 5×10^6/ml were cultured with a test protein for 5 days and cell supernatant were harvested and stored at −80° C. Cytokines of the supernatants were measured using ProcartaPlex Multiplex Immunoassays with MAGPIX Multiplex Reader according manufactory protocol.

[2] = system: PBMC cells obtained from mite allergic patients and non-allergics; test: Ex vivo stimulation of PBMC: cytokine production (IFN-gamma, IL-9, IL-10, IL-17, IL-31)
From the text: as §1

[3] = system: basophils in whole blood from HDM allergic donors; test: Basophil Activation Test (BAT); settings: blood from HDM allergic individuals (n=14)
Method: Basophil Activation Test (BAT) was used as a predictive in vitro assay for indication of safety/immediate hypersensitivity reactions. The BAT assay is a widely used diagnostic test that is also used for evaluation of allergenicity of allergen derived components. In short: whole blood from HDM allergic donors was stimulated for 1 h with the proteins, and the increased expression of activation markers on the surface of basophils were measured by flow cytometry. The BAT test was carried out using different concentrations of the proteins and the allergens Der p 2 and Der p 1 was used as controls and tested in the same concentration rates.
as §1

Row | Molecule | % responders of in-vitro T cell proliferation test, Allergic [1] | % responders of in-vitro T cell proliferation test, Non-allergics [1] [%] | % HDM allergic individuals with cytokine production in ex-vivo T cell assay IL-5 [2] [%] | % HDM allergic individuals with cytokine production in ex-vivo T cell assay IL-9 [2] [%] | % HDM allergic individuals with cytokine production in ex-vivo T cell assay IL-10 [2] [%] | % HDM allergic individuals with cytokine production in ex-vivo T cell assay IL-13 [2] [%] | % HDM allergic individuals with cytokine production in ex-vivo T cell assay IL-17 [2] [%] | % HDM allergic individuals with cytokine production in ex-vivo T cell assay IL-31 [2] [%] | % HDM allergic individuals with cytokine production in ex-vivo T cell assay INF-g [2] [%] | % non-allergic individuals with cytokine production in ex-vivo T cell assay IL-5 [2] [%] | % non-allergic individuals with cytokine production in ex-vivo T cell assay IL-9 [2] [%] | % non-allergic individuals with cytokine production in ex-vivo T cell assay IL-10 [2] [%] | % non-allergic individuals with cytokine production in ex-vivo T cell assay IL-13 [2] [%] | % non-allergic individuals with cytokine production in ex-vivo T cell assay IL-17 [2] [%] | % non-allergic individuals with cytokine production in ex-vivo T cell assay IL-31 [2] [%] | % non-allergic individuals with cytokine production in ex-vivo T cell assay INF-g [2] [%] | # of individuals of 14 with positive BAT test ([3]; 1 ng/ml) | # of individuals of 14 with positive BAT test ([3]; 10 ng/ml) | # of individuals of 14 with positive BAT test ([3]; 100 ng/ml) | # of individuals of 14 with positive BAT test ([3]; 1000 ng/ml)
1 | A010: house dust mite protein; SEQ ID NO: 41 (Der p), 42 (Der f), 308 (Blo t) (protein) DSLKCSSIRNEDRIDCNPDPPISKNVCEQRGCCWKTAGNDLKNLSSKVLPNLNVPYCYYGENYIGYKIEKHSKNLIQLKRNRSSGFARDIENINIEIHELNDKVIRLKFIDANKKRYEVPIPKLNLPSTTSSSSSNSRLYSVELDGSHLIVRRRETNQSIFDINLAYMVYSDQLIHVTSRLPSKYIYGLGEHRAPFRKNTNWKRYTQWTRDQYPVTDKALYGNHPFYLTVEDESPKKSASGVFLFNSNAMDIITQPSPAITFRTIGGILDFFVFFGPKPEDVISQYQNLIGLPAMPPFWSLGYQQCRYGYNNFTNLNTTYTRNRAVGIPMDVQWTDIDAFNSNNDFTYDHKRFKELPDFINNVLHPNGQKFIPMFDCGISSGEPAGSYKPFDSGVELDVFVKNSSNKIFRGKVWNGKSTVWPDFSHPNATEYWMDMFAEYHKTIAFDGAWLDMNEPSNFYNGEEHGCPESEIENPQYVPGMTDDSLTLRHKTLCMTARHYNDQLHYNLHNLYSLSMAMATNAALTKLNKRPFIISRATAPGHGHWAYHWNGDILSDWSSMRWTIPSILNFNMFGIPMVGADICGFGGNTAEELCIRWYQLGAFYSFARNHNDIHSIDQDPAALGESVIRAARSSLQYRYRFLAHLYTLFYHVHKNGGTVLRPMFFEFPHDEHTYEIETQFMWGDSVLIAPILYPNQTQHKIYLPKGTWYNRKVSFESQGQYITMNDSYDDIDYVFVRGGSIIPTQEPHDNTELMKTKDFLLIVALDNQTSYAKGSLYWDSGDSLNPDKTGHYNFYNFDAVNNTLTIQSQWLGYQTTQNINFINILGVPKLPTSFKLNGHVSDPRIIRFNYDEQTNILTVETKLPIYNQDSSSHDRIHYQFEWIME | 100* % | 14 | 31 | 13 | 38 | 44 | 13 | 6 | 0 | 0 | 0 | 0 | 0 | 0 | 0 | 0 | 0 | 0 | 0 | 1
2 | A011: house dust mite protein; SEQ ID NO: 39 (Der f), 40 (Der p), 309 (Blo t) (protein) KSAPEGCFRAAVLDHVHQTDARHLSNTAKIIDLNFKVYEDAAALAKKQGADIIVFPENGLIYSILSREKADEFASDIPDAEVNACTLDSKFVYNRLACLAQKHQMFVVADLIDRKSCEELGINNVSDSCPADKKFLFNTAVLFDRQGKLLGRYHKMHLFGEISMNPPPKPELLVIDTELGRLGMQICFDMIFKTPGYLLAQENKFDTMLFPTWWFDESPMLSSSQYQMAWAFGNNVTLLASNIHRIEVGSRGSGIYVGPHRTLAAALYDDSVERLVLANVPIKPKETDQSACPLDSEIIEVPQQIPIPKSVKYHHQNLNLKDVTLLQLSSNESEVHLCHKGVCCQFEYRLAMKDQPQESWVDRVPLLANMLHYLTPEERYYLLIANRTRPGAYPWSEEFCAVVVCPSSRWNFGKMQKDCSKIGSNQELSSRFVHAKLRGKFSEDTAVYPSAVGSKNQLIYPENKWKFWKVNVPNEPEYFIELGAKDNSESRAMELGALVLYGRNYNRDPRYEQKALPIN | 64% | 13 | 25 | 6 | 13 | 19 | 6 | 6 | 0 | 0 | 0 | 0 | 0 | 0 | 0 | 17 | 0 | 0 | 0 | 1
3 | A009: house dust mite protein; SEQ ID NO: 43 (Der f), 44 (Der p), 307 (Blo t) (protein) VVIKVENLPEQCDYTQCPKWSKDDINVHLVAHTHDDVGWLKTVEQYYYGLKNDIQRAGVQYILDTMIEELIRNKDRRFIYVEIAFFWKWWQEQNEEQRMIVKELVRTGQLEFINGGWSMPDEAATHYNSLIDQSTWGLRQLNDTFGRCGHPKVTWQIDPFGHSKEMANLYAQMGYDALFFARQDYQDRENRMSNRTLEHVWQGSDDLGEIGDIFTGMMFSGYGPIEFNWDITNGPEDAVVDNPESEEYNVPDKIRRFVEKAKYFGQFYATNHFMFPMGTDFQYTDAHTWFKNLDKLINAVNKAGKGVRAFYSTPSCYAHALYEQNRTWTTKTDDFFPYASDEHAYWTGYFTSRPAIKRMERIGNNLLQACKQLDVLADNNGRFEMNLTKMREAMGVMQHHDAVTGTEKQHVAFNYAKMLDSAMLQCRHIINESYKKLLPKSSTSEHEFCPYLNISSCPTTEMGESRIIYLYNPLGHRLINHTVRLPIKNGYYYRIQDQNNQSVPSVLVPIPEFVQKIPGRKSVATKELVFRVPVIEPLGITTMYMYVDKNEQPNSAIEIKGENPDDNDDKSKWLVLTKNLIVEFYSNGTISRISIDKLHQSISISNEFRLYHGAGGTGRHSGAYIFRPNEQKTFPVTNKIKSTFFIDRKYHIVQEVHQQFDSSFVGQIIRMDKYNDNVEFDFVVGPIPVNDQIGKEIIASYKTDLENDETFYTDANGRQMLRRRWNYRPSWKYNVQEPISGNYYPVNSRIAIRDEKQSLQMTIMTDRSQGGSLSPEQINGSIDIMIHRRLLHDDYFGVGEALNEPGVDGHGLVIRGKHLLLLNSIKQSASEHRPLAQQMFMEPIISFTSIESNKQAEKQSNQYIGLNNDLPSNVHLLTLEQWHSKRYLLRLEHFYQSNEDTELSKPVKLSLRHLFKSFEIIAVEELTLGANQPISSLKNRLHYRYNRPLEQRQQQQSSLLLDDPKIEGENFDIHLSPMQIRTFLIDIKRN | 36% | 63 | 0 | 0 | 94 | 6 | 19 | 0 | 19 | 0 | 0 | 100 | 0 | 33 | 0 | 50 | 0 | 0 | 0 | 3
